Measured values as given in patent US20240002495A1 (MITSUBISHI TANABE PHARMA, published 2024).
Residue numbers refer to the chain shown, from its start. Each block holds one binder with its values, some of them ahead of it. Where no end group is shown, it is not given here.

Columns and labels:
[1] = molecular target: T1, recombinant human IL-33 protein (residues 112 to 270) (ILC0701, ATGen Co. Ltd) (human, UniProt O95760 112-270); assay: cell-based or functional assay
T1 sequence: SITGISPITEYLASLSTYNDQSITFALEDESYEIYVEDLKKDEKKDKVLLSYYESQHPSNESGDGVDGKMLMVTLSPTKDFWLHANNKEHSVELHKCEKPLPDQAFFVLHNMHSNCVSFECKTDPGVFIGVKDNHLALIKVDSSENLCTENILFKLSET

[2] = molecular target: T1, recombinant human IL-33 protein …; assay: KinExA in PBS, neutral-purified IgG
Protocol: Each test antibody (IgG) (“antibody (IgG)” indicates an antibody having a molecular form of IgG; hereinafter, the same representation is used) was analyzed to confirm the affinity with the human IL-33 protein by measuring dissociation constant (Kd) between each test antibody and the human IL-33 protein in PBS by kinetic exclusion assay (KinExA) (KinExA3200, available from Sapidyne Instruments, Inc.). Mixture samples of a test antibody and a human IL-33 protein (ILC0701, available from ATGen Co. Ltd) were prepared. The human IL-33 protein was titrated to a constant concentration of test antibody (final concentration: several tens of pM to several hundreds of pM) over a wide concentration range of the human IL-33 protein (so that it covered the concentrations of the human IL-33 protein resulting from 12-step serial doubling dilutions, i.e. one- to 2048-fold, with the upper limit of final concentration set to several nM to several tens of nM). The mixture samples were incubated at a room temperature until the antigen-antibody reaction reached equilibrium. After the reaction reached equilibrium, the percentage of free anti-IL-33 antibody in each sample was analyzed using KinExA3200. The values of Kd were calculated by fitting the plot of percentages of anti-IL-33 antibody not bound to the human IL-33 protein (vertical axis) and concentrations of antigen (horizontal axis) to a theoretical formula, using a KinExA data analysis program (KinExA Pro Software v3.5.3, available from Sapidyne Instruments, Inc.). Beads for capturing the anti-IL-33 antibody were prepared by suspending 50 mg of Azlactone beads (Sapidyne) in 1 mL of coating solution (10 μg/mL human IL-33 protein (ILC0701, available from ATGen Co. Ltd), 50 mM sodium carbonate at pH of 9.6) and incubating the solution at a room temperature for one hour. The antibody for detection used was anti-human F(ab)′2-DyLight649 (Jackson, 309-495-006).

[3] = molecular target: T1, recombinant human IL-33 protein …; assay: KinExA in PBS, alkaline-purified IgG
Protocol: (§1) Mixture samples of a test antibody and a human IL-33 protein (ILC0701, available from ATGen Co. Ltd) were prepared. The human IL-33 protein was titrated to a constant concentration of test antibody (final concentration: several tens of pM to several hundreds of pM) over a wide concentration range of the human IL-33 protein (so that it covered the concentrations of the human IL-33 protein resulting from 12-step serial doubling dilutions, i.e. one- to 2048-fold, with the upper limit of final concentration set to several nM to several tens of nM). The mixture samples were incubated at a room temperature until the antigen-antibody reaction reached equilibrium. After the reaction reached equilibrium, the percentage of free anti-IL-33 antibody in each sample was analyzed using KinExA3200. The values of Kd were calculated by fitting the plot of percentages of anti-IL-33 antibody not bound to the human IL-33 protein (vertical axis) and concentrations of antigen (horizontal axis) to a theoretical formula, using a KinExA data analysis program (KinExA Pro Software v3.5.3, available from Sapidyne Instruments, Inc.). Beads for capturing the anti-IL-33 antibody were prepared by suspending 50 mg of Azlactone beads (Sapidyne) in 1 mL of coating solution (10 μg/mL human IL-33 protein (ILC0701, available from ATGen Co. Ltd), 50 mM sodium carbonate at pH of 9.6) and incubating the solution at a room temperature for one hour. The antibody for detection used was anti-human F(ab)′2-DyLight649 (Jackson, 309-495-006).

[4] = molecular target: T2, DQSITFALEDESYEIYVEDL (PEP14) (human, not fully specified); assay: KinExA, alkaline-purified IgG, peptide
T2 peptide: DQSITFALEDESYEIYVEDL
Protocol: (§2) The mixture samples were incubated at a room temperature until the antigen-antibody reaction reached equilibrium. After the reaction reached equilibrium, the percentage of free anti-IL-33 antibody in each sample was analyzed using KinExA3200. The values of Kd were calculated by fitting the plot of percentages of anti-IL-33 antibody not bound to the human IL-33 protein (vertical axis) and concentrations of antigen (horizontal axis) to a theoretical formula, using a KinExA data analysis program (KinExA Pro Software v3.5.3, available from Sapidyne Instruments, Inc.). Beads for capturing the anti-IL-33 antibody were prepared by suspending 50 mg of Azlactone beads (Sapidyne) in 1 mL of coating solution (10 μg/mL human IL-33 protein (ILC0701, available from ATGen Co. Ltd), 50 mM sodium carbonate at pH of 9.6) and incubating the solution at a room temperature for one hour. The antibody for detection used was anti-human F(ab)′2-DyLight649 (Jackson, 309-495-006).
(§3) The anti-IL-33 monoclonal antibodies A10-1C04 and A25-3H04 bound to the epitope PEP14 as described in the Example 1. […] These peptides were synthesized, and the affinity with the alkali-purified antibodies was calculated as Kd by the KinExA experiment as in Example 9 (Table 14).

LEDESYEIYV = molecular target: T3, LEDESYEIYV (human, not fully specified (N-terminus)); assay: KinExA, alkaline-purified IgG, peptide
T3 construct: synthetic peptide
T3 peptide: LEDESYEIYV
Protocol: as §2, §3

EDESYEIYV = molecular target: T4, EDESYEIYV (human, not fully specified (N-terminus)); assay: KinExA, alkaline-purified IgG, peptide
T4 construct: synthetic peptide
T4 peptide: EDESYEIYV
Protocol: as §2, §3

[5] = molecular target: T1, recombinant human IL-33 protein …; assay: SPR (Biacore T200), human IL-33 (ILC0701) immobilized on CM5, Calibration Free Concentration Analysis of the preserved antibody against a control-preserved sample
Protocol: Each alkaline-purified antibody was dissolved in a citrate buffer (50 mM citric acid; 150 mM NaCl (pH: 6.3)) at a concentration of about 10 mg/mL, and was preserved at a temperature of 40° C. for four weeks, to evaluate the preservation stability of each test antibody (IgG). For evaluation of the monomer purity of each antibody after the preservation, monomer purity was measured by size exclusion chromatography analysis (SEC) and microchip capillary SDS electrophoresis (mCE-SDS), and antigen-binding activity was measured by surface plasmon resonance.
In order to confirm the presence of the antigen-binding ability after the preservation, the antigen-binding activity was measured with a surface plasmon resonance system, Biacore T200 (available from GE Healthcare). A human IL-33 protein (ILC0701, available from ATGen Co. Ltd) was immobilized onto a Sensor Chip CM5 (GE Healthcare) (the amount of immobilized protein was about 3000 to 6000 RU) with Amine Coupling Kit (GE Healthcare). Each preserved antibody solution was then diluted to 10-fold with a citric buffer (50 mM citric acid, 150 mM NaCl (pH: 6.3)), and the resulting solution was analyzed to measure the total protein concentration in the solution, using a microvolume spectrophotometer, Astragene II (Astranet Systems, Ltd.) (protein concentration: about 1 mg/mL). The antibody solution after the measurement of the total protein concentration was diluted to 1000-fold with HBS-EP buffer (10 mM HEPES, 150 mM NaCl, 3 mM EDTA, 0.05% (v/v) Surfactant P20 (at pH of 7.4)). The analyte was thereby prepared. The measurement temperature was 25° C. Each analyte was added for 36 seconds at two flow rates of 5 μL/min and 100 μL/min to obtain sensorgrams of the association phase. The sensorgrams were then analyzed by Calibration Free Concentration Analysis using a data analysis program (GE Healthcare, Biacore T200 Evaluation Software v1.0) to determine the concentration of the antibody having antigen-binding activity. As control, each test antibody after preservation at a temperature of 4° C. for four weeks was also analyzed to confirm the antigen-binding activity, to calculate the ratio of antigen-binding activity of each test antibody after the preservation at a temperature of 40° C. for four weeks.

[6] = molecular target: T5, full-length human IL-33 protein (human, UniProt O95760 1-270); assay: KinExA in PBS, alkaline-purified IgG
T5 construct: also called Human IL-33 (Full-Length)
T5 sequence: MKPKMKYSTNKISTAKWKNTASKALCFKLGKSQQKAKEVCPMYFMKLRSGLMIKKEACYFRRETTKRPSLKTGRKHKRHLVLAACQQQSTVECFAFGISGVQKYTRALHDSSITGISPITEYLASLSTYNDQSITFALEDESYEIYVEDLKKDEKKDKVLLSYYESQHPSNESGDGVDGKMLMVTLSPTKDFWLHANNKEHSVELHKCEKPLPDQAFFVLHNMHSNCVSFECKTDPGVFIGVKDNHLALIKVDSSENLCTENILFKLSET
Protocol: as §1

[7] = molecular target: T6, recombinant human ST2 Fc chimera (ALX-201-367-C050, Enzo Life Science) (human, UniProt Q01638 19-328); assay: SPR (ProteOn), hIL-33 on chip, ST2 Fc chimera as analyte
T6 construct: bought; also called human IL-33 receptor protein; human IL-33 receptor (ST2)
T6 sequence (looked up): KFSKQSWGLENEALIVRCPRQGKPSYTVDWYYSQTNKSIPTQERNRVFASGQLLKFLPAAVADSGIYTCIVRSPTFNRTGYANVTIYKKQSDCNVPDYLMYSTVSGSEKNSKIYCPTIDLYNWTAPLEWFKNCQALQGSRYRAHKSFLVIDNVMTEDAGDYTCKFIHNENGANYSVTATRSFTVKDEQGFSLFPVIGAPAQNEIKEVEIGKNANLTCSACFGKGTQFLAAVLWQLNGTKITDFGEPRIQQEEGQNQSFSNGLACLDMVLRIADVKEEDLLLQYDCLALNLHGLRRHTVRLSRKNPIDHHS
Description: Each peptide was N-terminally biotinylated, and was immobilized as ligand onto a NeutrAvidin sensor chip of a surface plasmon resonance (SPR) system (ProteOn XPR36, available from Bio-Rad Laboratories, Inc.). […] The resulting protein (hIL-33) as a ligand was immobilized onto the SPR sensor chip. Each test antibody, the human IL-33 receptor protein (recombinant human ST2 Fc chimera) (ALX-201-367-C050, available from Enzo Life Science, Inc.), or buffer (0.05% Tween20/PBS) alone was then loaded as an analyte onto the sensor chip containing the ligand immobilized thereon (antibody concentration: […]; flow rate: 100 μl/min), to allow them to bind to the ligand. After washing, the amount of analyte (amount of antibody) bound to the ligand on the sensor chip was measured as RU value.

IC50 of inhibition of IL-6 production by HUVEC (alkaline-purified IgG, human IL-33 100 ng/mL) [1]: 0.21 µg/mL
inhibition of IFN-γ production by human PBMC (alkaline-purified IgG 10 ug/mL, IL-33 10 ng/mL, IL-12 10 ng/mL) [1]: 97.9%
inhibition of production of IL-5 and IL-13 by KU-812 cells (alkaline-purified IgG 1 ug/mL; IL-33 3 ng/mL with IL-3 and C5a) [1]: ≥ 50%
percentage of inhibition (%) of IL-6 production by HUVEC (neutral-purified IgG 1 ug/mL, IL-33 100 ng/mL) [1]: 97%
Kd [2]: 5.38 pM
Kd [3]: 7.7 pM
Kd [4]: 1.5 pM
Kd (LEDESYEIYV): 11000 pM
Kd (EDESYEIYV): 301000 pM
% Active IgG (antigen binding activity after preservation at 40 C for 4 W) [5]: 102%
B1: A25-3H04 (IgG) (antibody, V domains shown)
VH: EVQLLESGGGLVQPGGSLRLSCAASGFTFSRYYMHWVRQAPGKGLEWVSSISAQSSHIYYADSVEGRFTISRDNSKNTLYLQMNSLRAEDTAVYYCARLATRQNAFDIWGQGTLVTVSS
VL: QSVLTQPPSASGTPGQRVTISCSGSSSNIGRNAVNWYQQLPGTAPKLLIYASNMRRSGVPDRFSGSKSGTSASLAISGLRSEDEADYYCSAWDDSQKVVVFGGGTKLTVL
notes: tested as neutral-purified and as alkaline-purified antibody; also called V17; IGN17

IC50 of inhibition of IL-6 production by HUVEC (alkaline-purified IgG, human IL-33 100 ng/mL) [1]: 0.23 µg/mL
inhibition of IFN-γ production by human PBMC (alkaline-purified IgG 10 ug/mL, IL-33 10 ng/mL, IL-12 10 ng/mL) [1]: 98.2%
inhibition of production of IL-5 and IL-13 by KU-812 cells (alkaline-purified IgG 1 ug/mL; IL-33 3 ng/mL with IL-3 and C5a) [1]: ≥ 50%
percentage of inhibition (%) of IL-6 production by HUVEC (neutral-purified IgG 1 ug/mL, IL-33 100 ng/mL) [1]: 96%
Kd [2]: 10.8 pM
Kd [3]: 5.3 pM
Kd [6]: 10.4 pM
% Active IgG (antigen binding activity after preservation at 40 C for 4 W) [5]: 101%
B2: A26-1F02 (IgG) (antibody, V domains shown)
VH: B1 VH with R31N, Q54R, H57Y, I58L, E65K, Q103H, N104V
VL: B1 VL with R31N, S57P, S90E, V98A
notes: tested as neutral-purified and as alkaline-purified antibody; also called V18; IGN18

binding result [7]: binds
B3: mature human IL-33 (residues 112 to 270) N-terminally linked with the Avitag sequence, biotinylated (ligand, not shown: small tags and cut ends)
chain: T1 sequence
modifications: biotin on the AviTag sequence (biotin ligase reaction)
notes: also called hIL-33
